Reference: the DeepSol protein solubility set

test: soluble on expression in E. coli; label from the status in PepcDB or PDB records

Question: For “MENKVVEEKQVDKIPLMSPCKMGKFELCHRVVLAPLTRQRSYGYIPQPHAILHYSQRSTNGGLLIGEATVISETGIGYKDVPGIWTKEQVEAWKPIVDAVHAKGGIFFCQIWHVGRVSNKDFQPNGEDPISCTDRGLTPQIMSNGIDIAHFTRPRRLTTDEIPQIVNEFRVAARNAIEAGFDGVEIHGAHGYLIDQFMKDQVNDRSDKYGGSLENRCRFALEIVEAVANEIGSDRVGIRISPFAHYNEAGDTNPTALGLYMVESLNKYDLAYCHVVEPRMKTAWEKIECTESLVPMRKAYKGTFIVAGGYDREDGNRALIEDRADLVAYGRLFISNPDLPKRFELNAPLNKYNRDTFYTSDPIVGYTDYPFLETMT”, which “soluble on expression in E. coli” value is on record?
Answer: Its value is “soluble”.

Question: Which “soluble on expression in E. coli” value does the source give for “MENLKNYFDVVIIGAGPAGLFAAYELSKYDNLKTVVIDRGKDVLERHCAAEKLKKCIKCNPCQIMYGVGGAGGLSDGTLNLRPDIGGNLAEITNNENYAWQLIFEVDKIFLEHGGPKKLFKGSFEKIKGLQRRSAQNGVRFIPIIQRHIGSDHTKQLINNIKTTLQNRGVEFLLNTEVFKFEKNKVFVNISGKKEEINAKYIIVAPGRGNAEWFLKISEKIGLISNHGPIDVGVRVEVPSIIMESITEINHDPKFHIYTDTYDDFVRTFCTNPYGFVVEENYGDIIGVNGHSMVDKKSENTNFSFLTRIELTEPVENTTSYGKSIAKLTTTLGGGKPILQRLGDLKRGRRSTWDRLKKSSFDPTLKQVTPGDIAMALPHRIVTNIIEGLEKLDKVIPGVSNDHTLLYAPEIKYYAMKTKVNDDLETSILNIFAAGDGAGLSRDITNSCATGMLAARGILKKEGITDIFKDENTNWQEKVESMKLEHHHHHH” here?
Answer: Its value is “soluble”.

Question: For “MENMLLWLIFFTPGWTLIDGSEMEWDFMWHLRKVPRIVSERTFHLTSPAFEADAKMMVNTVCGIECQKELPTPSLSELEDYLSYETVFENGTRTLTRVKVQDLVLEPTQNITTKGVSVRRKRQVYGTDSRFSILDKRFLTNFPFSTAVKLSTGCSGILISPQHVLTAAHCVHDGKDYVKGSKKLRVGLLKMRNKSGGKKRRGSKRSRREASGGDQREGTREHLQERAKGGRRRKKSGRGQRIAEGRPSFQWTRVKNTHIPKGWARGGMGDATLDYDYALLELKRAHKKKYMELGISPTIKKMPGGMIHFSGFDNDRADQLVYRFCSVSDESNDLLYQYCDAESGSTGSGVYLRLKDPDKKNWKRKIIAVYSGHQWVDVHGVQKDYNVAVRITPLKYAQICLWIHGNDANCAYG”, which “soluble on expression in E. coli” value is on record?
Answer: Its value is “not soluble”.

Question: With “MENNLAEFERRAEKNLLIMCKEKEKLQKKAHELKRRLLLSQRKRELADVLDAQIEMLSPFEAVATRFKEQYRTFATALDTTRHELPVRSIHLEGDGQQLLDALQHELVTTQRLLGELDVGDSEENVQVLDLLSELKDVTAKKDLELRRSFAQVLELSAEASKEAALANQEVWEETQGMAPPSRWYFNQDSACRESGGAPKNTPLSEDDNPGASSAPAQATFISPSEDFSSSSQAEVPPSLSRSGRDLS” as the sequence, how does the “soluble on expression in E. coli” value read?
Answer: Its value is “soluble”.

Question: Which “soluble on expression in E. coli” value does the source give for “MEQDNSPQKIQFTVPLLEPHLDPEAAEQIRRRRPTPATLVLTSDQSSPEIDEDRIPNPHLKSTLAMSPRQRKKMTRITPTMKELQMMVEHHLGQQQQGEEPEGAAESTGTQESRPPGIPDTEVESRLGTSGTAKKTAECIPKTHERGSKEPSTKEPSTHIPPLDSKGANSV” here?
Answer: Its value is “soluble”.

Question: Which “soluble on expression in E. coli” value does the source give for “MEQLLFRHNRPGRCVTFAEYRAEGGFAALEKALAGMSPNDVQQVVIDSGLRGRGGAGFPTGKKWSFVPRDIPGPRYLICNCDEMEPGTYKDRVLLEANPYSLVEGMTLAAYAIGVAHAFIFIRRGYEEAAENCRRAIAEAKAAGLLGENILGTGFSLELDVHQSAGRYICGEETALMNALEGKRANPRSKPPFPAVKGLWGRPTVVNNVETLANIPAIVANGAAWFKGLARIPEAAGMKLFCVSGHVNNTACFELPLGMTLGEIIDGPCGGMLPGREFKACIPGGASTPFFTKEHWHVPMDFDTVAKAGSRLGTGGIVVFDRDTCMVAATLNLIVFYARESCGWCTPCREGLPFVQDVLARIEAGEGREEHIGILREHIQYLNYSFCPLAPGAMGPVEGLLRLFEGEIREHIVLGRCPFGGKLEHHHHHH” here?
Answer: Its value is “not soluble”.

Question: Which “soluble on expression in E. coli” value does the source give for “MEQLSIQTDELQDQFSNCSPASVDSSYSSCSSVEDEIEIYTRLVRNEEPLRRDFFREMSKNSSCSSSFDYGEFGPSSSSRKGSKTTDADLDSLFHSLVETSDQVNTVPKPTKTEVESIPEEFEQKPSSSSHRLPSEMNASITHIKSELDPTMQAFQMPHNDLFLATAAPHYNPFALSNDFMPNPLMPSFTSPFYPQHFPVSDSRRGSQGTTSSSNNTGGTPSPHSSSLPTSPPQLQGFLRSFLNPDNLSTPTSFGVPSETALDADKMCAVCNDRAVCLHYGARTCEGCKGFFKRTVQKNSKYTCAGNKTCPIDKRYRSRCQYCRYQKCLEVGMVKEIVRHGSLSGRRGRLSSKTKLARSEDQPSPPLPLLALMGKAIEDHTNMTVVRQFMQPFDETIALRILHGELHATKKLLMAMPQISEIQPADFQILLSRSFFAIMAIRVANRCGNSTDTIMFESGELFSLNAFPACFQQIIRFMVDKARTFSSLVDWEPQAFAAFIALQFLAGNTEHNVLGLTNKPLVDQVQSTIINALKDHCSGSQNKLAKIVRLTQEFDVFHALGLQALDILYPSHQLPEEFMFLINLTRAPLRSTDAPPACGSPVAPSGSSLFNFQMGPAAF” here?
Answer: The value was “not soluble”.

Question: With “MEQMIFIRKDDKVEVFSEEEELKGSYYRAILEDNPTKSGHNKLKVRYLTQLNEHRLAPLTEFVDQRFIRPVPSEDVNDGVVFVEGLMVDAYLKDGWWTGVVVKTMEDEKFLVYFDCPPDIIQFEKKKLRVHLDWTGFKWIRPDNKELVKSVFSCGTMVELRFDCAWIPVIVIKELEKDKRFLVKYWNKSYSCRESKNLIVDSLRLRPMQPPLSVGKYELLDHVEAFSGFEWRQGVVRGIVFEGRYMVSFGATKEASQFNHSDIRPPMEWEDGVWHKRTKPKRQKETSLDGNRNVQTKEPPGNEMADDVKKESGLPITLGVTATKNKTQGKVSPVPMKNGFGNESTREKMPEEPKIKYYTRKRKRGGLKLNSYINKTVLSSDRTPNVVKNSASNAEENHAKHTIMVLPFAKKSPVWKTYESLEVFKSVSHSLHFSPLFETKQDFREGYAIGMMVTYFGLLEKFKDLEADVPVSQLNSLKDSFSELEKHGFNVTTPLSRIDKLLALKDRQLYIMEELKGFDKEMTNEFSKAKQEFDDMEQKILEVKHKIIELQRQEAALKEQKEAEKEQKDAAWKKICQMESCAKDLNVELEDVEFEFETILSAPW” as the sequence, how does the “soluble on expression in E. coli” value read?
Answer: Its value is “soluble”.

Question: For “MEQNGFHTLSLFLNPKVLRPLLTQAVTQLPKYFLGQSSTPPSTSFEGRYKPSFLERAAFSTNPFDNTGSDTQQKLSPTELIRGSYGEGREAGKKTPAELIMSTDDLKRQMPSLPDALKDTIRIQEVPKQEKSDFSEQGGVASMIPQSPFVSNIDKVSGDEAGRQQKDVMDYITEFNNRSMPEEQRGSSPVNEETLSHTPISEEEHLKANDMPEQATDYVNAVGNFIHKDANPSNLWERFRKSEFSEHLMDFFAGLASGKTPQESFSNAALVMRQGNNTRLQNRPIFAFLRSKGYDDKDAQAIMQYPDLAMKVIGSTLSPQEDYRTLTAEEKAKQGLPEDMAFQISTSTGKIIPVQGGQRSTASGLGGNTDSMLSKPESGYMLVKDKNAPHGIRAMPIAGSGAEHKLIQEQKEEERKEQQAKMQILESADRSNRIISTSKELLKIVDEHPHVAGFLGYWGSFIPGFKAKDFGHMLDSLKASIGLDALTKAKAFSPNGASGFGNLSNMELQALQNSVAALYQDLTAEQLKKSLTTIIDTFNKSNAATRAILFGGAEATRELVRAAYGEDAYKKNNTQSDVSLEKQIEALPEGILFIDSDGRIKEKQTNG”, which “soluble on expression in E. coli” value is on record?
Answer: Its value is “not soluble”.

Question: Which “soluble on expression in E. coli” value does the source give for “MEQNIATAQVSVARPNWDKSRLVSRIVHLGCGAFHRAHQALFTHHLLEKSDSDWGICEVNLMPGNDARLIANLKAQNLLYTVAERGAESTELKIIGSMKEALHPEFDGHAGILAAMARPETAIVSLTVTEKGYCTDPASGELDVNNPLIQNDLAHPQQPKSAIGYIVEALNMRREQGLKAFTVLSCDNVRENGHVAKAAVLGLAKARDAALAAWIADNVTFPCTMVDRIVPAATEETLQLVADQLGVYDPCAIACEPFRQWVIEDNFVNGRPDWDTVGAQFVADVVPFEMMKLRMLNGSHSFLAYLGYLGGYDTIADTMTNPAYRRAALALMLDEQAPTLSMPEGTDLEGYANLLIARFTNPSLKHRTWQIAMDGSQKLPQRLLDPVRLHLQQGDDYRRLTLGVAGWMRYVGGVDEQGKTIDVVDPLLAQYQAIHQQYQTPEERVRGLLAIESIFGNDLPKNHEFVQAVTDAYQQLLQNGAKATVEALAK” here?
Answer: The value was “not soluble”.

Question: For “MEQQIADLLDEQEELDLPQEQLEAAEGESEEESEEESSQGEKFPKTRAARIQRLVRDAAVSRNVKDLYGGECQACGLRLVGPDGRPYSEGAHIRPLGKPHCGPDVEPNVLCLCPNCHVRLDIGAIIIEDDWSIIVRAGELGGNVLSKLKRKKEHHVHLDYVRYHREWWLEKGDPSQELEHHHHHH”, which “soluble on expression in E. coli” value is on record?
Answer: The value was “soluble”.

Question: For “MEQQSYTIIDETGAHARPATMLVQTASKFDSDIQLEYNGKKVNLKSIMGVMSLGVGKDAEITIYADGSDEADAIQAITDVLSKEGLTE”, which “soluble on expression in E. coli” value is on record?
Answer: The value was “soluble”.

Question: For “MEQRTRLALLKEIAEFLNEETEMYSMTQGALKYLIEGSNFTTGWIFFINSVGEHELVSHVALPQSLTADHCHYIKDGSCWCVKAFNQRRLMKASNIVNCSRINLASKAFPSQNDNITHHATVPLKSGQEQFGILNVASPNTEIYSDEDLELLESVAFQLGSAIKRIYLTDREKEAAKINERNRLARDLHDSVNQMLFSVKLTAHAAYGMSNESIAKQAFKTIEKTSQNAVNEMRALIWQLKPVGLEQGLIHALTAYSKLMHIQLNVNVEGLIDLSNEIEENIYRALQECINNVKKHADTNKMDLTLKQMNDILYIDVIDYGQGFEIDNVQIASSHGINNIKQRVKLLRGKVTFHSQPTKGTQIQFTIPIK”, which “soluble on expression in E. coli” value is on record?
Answer: The value was “not soluble”.

Question: For “MERDGCFGNCWLRRWEKSDMNRKGFGGHRDAKQLSRTKNRFARLDPDTQSRYEDDDEPAVPVRASLTSASSRGRGGSSRGFGQSAASIANTGVRNADIVYKCRATGAAKKVDAKWLIKQLNQIIENFKPLLWTDNARGDFEWYVRDEDTASTIRANNRRVVHKESGTRVEFYTSKVPAPWMKLKREEIEIIHRVVDKRHNAENRVLDLSNFHEDEEFKAKDMMMNLTKGNVMLTVLDHIDDKYGNIVALSLSNNRIRHLDYASALVSIAKFVMELDLSHNHISTEKELEKFAGLPVERFFFEGNPVVESFTQRAAYISYIHQSFPRCNMLDGVEVQPLVVGPDLDIHDAMPFRAGYYPNPQIRVLVEQFVTSYFDFYDGPDGQRTRRNLHNAYDADASTFSLTIEHLRGSSHARHHNDECFAQYAGVSHNVLKQERFARHRASRSARGAMDIAVALSKLPTSSHMRDTFIVDVFLQSNDLLGFTVQGLFCDGDLTQTPSPSFFSRSFLVSPRENDSVAVISDQLFITVASLDRLEKFKKLYDQSIANGAAVEQVSAVQIAQIGVNGMGFDGAPALPIREEMIKAMCQFSGMIPPFSEKCLADCAWNFDFACQKFNEIKSSVPAEAFAH”, which “soluble on expression in E. coli” value is on record?
Answer: Its value is “not soluble”.

Question: For “MERELAHWVERLRERAEAEGLSFPPVAFQEVGPEEMAMLAAYGGFPRRYPHWRWGSAYLHYRETYRYGLARIYELVVNTVPVQAYLLRGNPLLAQKLVVAHVYAHADFFQNNLAFKPIPKDMLAEMAHHAAYVERAMERHGARSVEEFLDLALSLENLIDPHAPYIQRPAQKEEEAPKRLPVRPYLDPYVNPAPAFPKEAEEGASPEPLPPRPTRDILGFLARHAPLAPWQKGILEIVREESLYFAPQAATKILNEGWATYWHTRLLLPLLTPEEALEFAEMQANLLAPHGLNPYRLGYHLLMEVEERWDKGRFGPEYEALPLGERLRYERPTGEGRKKLFQVRTVYTDLNFLEEFLTPEFALRRGLFALEDLPRFAEAKKALLFRLTNLGYPIVELVDANYQNRGELLLAHAYEGVELDLRKTKAVLENLHRLWGRPVHLKTVVGGKETLLSAGA”, which “soluble on expression in E. coli” value is on record?
Answer: The value was “soluble”.
